Assay results reported in US20200165325A1.

Assays:
[1] = biological target: HIV-1 Env of strain 1056_10_TA11_1826 (HIV-1)
[2] = biological target: HIV-1 Env of strain 231966.c02 (HIV-1)
[3] = biological target: HIV-1 Env of strain 3817.v2.c59 (HIV-1)
[4] = biological target: HIV-1 Env of strain 620345.c01 (HIV-1)
[5] = biological target: HIV-1 Env of strain 62357_14_D3_4589 (HIV-1)
[6] = biological target: HIV-1 Env of strain 6535.3 (HIV-1)
[7] = biological target: HIV-1 Env of strain 928-28 (HIV-1)
[8] = biological target: HIV-1 Env of strain CAP210.2.00.E8 (HIV-1)
[9] = biological target: HIV-1 Env of strain CNE21 (HIV-1)
[10] = biological target: HIV-1 Env of strain CNE30 (HIV-1)
[11] = biological target: HIV-1 Env of strain CNE53 (HIV-1)
[12] = biological target: HIV-1 Env of strain Ce2010_F5 (HIV-1)
[13] = biological target: HIV-1 Env of strain Du422.1 (HIV-1)
[14] = biological target: HIV-1 Env of strain P0402_c2_11 (HIV-1)
[15] = biological target: HIV-1 Env of strain Q769.d22 (HIV-1)
[16] = biological target: HIV-1 Env of strain Q842.d12 (HIV-1)
[17] = biological target: HIV-1 Env of strain QH0692.42 (HIV-1)
[18] = biological target: HIV-1 Env of strain SC422661.8 (HIV-1)
[19] = biological target: HIV-1 Env of strain T255-34 (HIV-1)
[20] = biological target: HIV-1 Env of strain TRO.11 (HIV-1)
[21] = biological target: HIV-1 Env of strain WITO4160.33 (HIV-1)
[22] = biological target: HIV-1 Env of strain X1254_c3 (HIV-1)
[23] = biological target: HIV-1 Env of strain ZM53M.PB12 (HIV-1)
[24] = biological target: Env (gp120) of HIV-1 strain 1054_07_TC4_1499 (HIV-1)
[25] = biological target: Env (gp120) of HIV-1 strain 231965.c01 (HIV-1)
[26] = biological target: Env (gp120) of HIV-1 strain 3016.v5.c45 (HIV-1)
[27] = biological target: Env (gp120) of HIV-1 strain 6535.3 (HIV-1)
[28] = biological target: Env (gp120) of HIV-1 strain 89-F1_2_25 (HIV-1)
[29] = biological target: Env (gp120) of HIV-1 strain AC10.0.29 (HIV-1)
[30] = biological target: Env (gp120) of HIV-1 strain C1080.c03 (HIV-1)
[31] = biological target: Env (gp120) of HIV-1 strain C2101.c01 (HIV-1)
[32] = biological target: Env (gp120) of HIV-1 strain C3347.c11 (HIV-1)
[33] = biological target: Env (gp120) of HIV-1 strain CNE53 (HIV-1)
[34] = biological target: Env (gp120) of HIV-1 strain CNE58 (HIV-1)
[35] = biological target: Env (gp120) of HIV-1 strain Du172.17 (HIV-1)
[36] = biological target: Env (gp120) of HIV-1 strain Du422.1 (HIV-1)
[37] = biological target: Env (gp120) of HIV-1 strain P0402_c2_11 (HIV-1)
[38] = biological target: Env (gp120) of HIV-1 strain Q23.17 (HIV-1)
[39] = biological target: Env (gp120) of HIV-1 strain Q259.d2.17 (HIV-1)
[40] = biological target: Env (gp120) of HIV-1 strain R2184.c04 (HIV-1)
[41] = biological target: Env (gp120) of HIV-1 strain REJO4541.67 (HIV-1)
[42] = biological target: Env (gp120) of HIV-1 strain RHPA4259.7 (HIV-1)
[43] = biological target: Env (gp120) of HIV-1 strain SC422661.8 (HIV-1)
[44] = biological target: Env (gp120) of HIV-1 strain T250-4 (HIV-1)
[45] = biological target: Env (gp120) of HIV-1 strain T251-18 (HIV-1)
[46] = biological target: Env (gp120) of HIV-1 strain T255-34 (HIV-1)
[47] = biological target: Env (gp120) of HIV-1 strain TRJO4551.58 (HIV-1)
[48] = biological target: Env (gp120) of HIV-1 strain WEAU_d15_410_787 (HIV-1)
[49] = biological target: Env (gp120) of HIV-1 strain WITO4160.33 (HIV-1)
[50] = biological target: Env (gp120) of HIV-1 strain ZM109F.PB4 (HIV-1)
[51] = biological target: Env (gp120) of HIV-1 strain ZM135M.PL10a (HIV-1)
[52] = biological target: Env (gp120) of HIV-1 strain ZM197M.PB7 (HIV-1)
[53] = biological target: Env (gp120) of HIV-1 strain ZM247v1(Rev-) (HIV-1)

Work on NIH45-46 G54W IgG (antibody) yielded an In vitro neutralization IC80 [1] of 0.16 mg/L, an In vitro neutralization IC80 [2] of 0.11 mg/L and an In vitro neutralization IC80 [3] greater than 50 mg/L. The In vitro neutralization IC80 [4] was greater than 50 mg/L, the In vitro neutralization IC80 [5] was 0.07 mg/L and the In vitro neutralization IC80 [6] was 0.13 mg/L. It also gave an In vitro neutralization IC80 [7] of 0.25 mg/L, an In vitro neutralization IC80 [8] greater than 50 mg/L and an In vitro neutralization IC80 [9] of 0.16 mg/L. It also gave an In vitro neutralization IC80 [10] of 0.196 mg/L, an In vitro neutralization IC80 [11] of 0.005 mg/L and an In vitro neutralization IC80 [12] of 0.187 mg/L. It also gave an In vitro neutralization IC80 [13] greater than 50 mg/L, an In vitro neutralization IC80 [14] of 0.023 mg/L and an In vitro neutralization IC80 [15] of 0.009 mg/L. For the same substance, the In vitro neutralization IC80 [16] was 0.025 mg/L, the In vitro neutralization IC80 [17] was 1.12 mg/L and the In vitro neutralization IC80 [18] was 0.07 mg/L. It also gave an In vitro neutralization IC80 [19] of 0.099 mg/L, an In vitro neutralization IC80 [20] of 0.13 mg/L and an In vitro neutralization IC80 [21] of 0.04 mg/L. It also gave an In vitro neutralization IC80 [22] of 0.018 mg/L and an In vitro neutralization IC80 [23] of 0.16 mg/L.
For NIH45-46^G54Y IgG (antibody), the neutralization IC50 [24] was 0.064 mg/L, the neutralization IC50 [25] was 0.025 mg/L and the neutralization IC50 [26] was 17.9 mg/L. It also gave a neutralization IC50 [27] of 0.08 mg/L, a neutralization IC50 [28] greater than 50 mg/L and a neutralization IC50 [29] of 0.19 mg/L. It also gave a neutralization IC50 [30] of 0.29 mg/L, a neutralization IC50 [31] of 0.09 mg/L and a neutralization IC50 [32] of 0.011 mg/L. It also gave a neutralization IC50 [33] of 0.006 mg/L, a neutralization IC50 [34] of 0.04 mg/L and a neutralization IC50 [35] greater than 50 mg/L. The neutralization IC50 [36] was greater than 50 mg/L, the neutralization IC50 [37] was 0.012 mg/L and the neutralization IC50 [38] was 0.02 mg/L. The neutralization IC50 [39] was 0.009 mg/L, the neutralization IC50 [40] was 0.015 mg/L and the neutralization IC50 [41] was 0.007 mg/L. It also gave a neutralization IC50 [42] of 0.007 mg/L, a neutralization IC50 [43] of 0.04 mg/L and a neutralization IC50 [44] greater than 50 mg/L. It also gave a neutralization IC50 [45] of 0.35 mg/L, a neutralization IC50 [46] of 0.04 mg/L and a neutralization IC50 [47] of 0.03 mg/L. For the same substance, the neutralization IC50 [48] was 0.002 mg/L, the neutralization IC50 [49] was 0.03 mg/L and the neutralization IC50 [50] was 0.026 mg/L. It also gave a neutralization IC50 [51] of 0.09 mg/L, a neutralization IC50 [52] of 0.07 mg/L and a neutralization IC50 [53] of 0.42 mg/L.
NIH45-46 G54F IgG (antibody) gave an In vitro neutralization IC80 [1] of 0.283 mg/L, an In vitro neutralization IC80 [2] of 0.24 mg/L and an In vitro neutralization IC80 [3] greater than 50 mg/L. For the same substance, the In vitro neutralization IC80 [4] was greater than 50 mg/L, the In vitro neutralization IC80 [5] was 0.14 mg/L and the In vitro neutralization IC80 [6] was 0.27 mg/L. The In vitro neutralization IC80 [7] was 0.41 mg/L, the In vitro neutralization IC80 [8] was greater than 50 mg/L and the In vitro neutralization IC80 [9] was 0.66 mg/L. For the same substance, the In vitro neutralization IC80 [10] was 0.348 mg/L, the In vitro neutralization IC80 [11] was 0.024 mg/L and the In vitro neutralization IC80 [12] was 0.186 mg/L. For the same substance, the In vitro neutralization IC80 [13] was greater than 50 mg/L, the In vitro neutralization IC80 [14] was 0.047 mg/L and the In vitro neutralization IC80 [15] was 0.023 mg/L. It also gave an In vitro neutralization IC80 [16] of 0.039 mg/L, an In vitro neutralization IC80 [17] of 1.65 mg/L and an In vitro neutralization IC80 [18] of 0.1 mg/L. For the same substance, the In vitro neutralization IC80 [19] was 0.198 mg/L, the In vitro neutralization IC80 [20] was 0.3 mg/L and the In vitro neutralization IC80 [21] was 0.14 mg/L. For the same substance, the In vitro neutralization IC80 [22] was 0.043 mg/L and the In vitro neutralization IC80 [23] was 0.23 mg/L.
NIH45-46^G54W IgG (antibody) showed a neutralization IC50 [24] of 0.04 mg/L, a neutralization IC50 [25] of less than 0.001 mg/L and a neutralization IC50 [26] of 1.47 mg/L. For the same substance, the neutralization IC50 [27] was 0.03 mg/L, the neutralization IC50 [28] was greater than 50 mg/L and the neutralization IC50 [29] was 0.13 mg/L. It also gave a neutralization IC50 [30] of 0.2 mg/L, a neutralization IC50 [31] of 0.04 mg/L and a neutralization IC50 [32] of less than 0.001 mg/L. It also gave a neutralization IC50 [33] of less than 0.001 mg/L, a neutralization IC50 [34] of 0.02 mg/L and a neutralization IC50 [35] of 3.65 mg/L. For the same substance, the neutralization IC50 [36] was greater than 50 mg/L, the neutralization IC50 [37] was 0.003 mg/L and the neutralization IC50 [38] was 0.01 mg/L. For the same substance, the neutralization IC50 [39] was less than 0.001 mg/L, the neutralization IC50 [40] was 0.005 mg/L and the neutralization IC50 [41] was 0.002 mg/L. For the same substance, the neutralization IC50 [42] was less than 0.001 mg/L, the neutralization IC50 [43] was 0.02 mg/L and the neutralization IC50 [44] was 1.33 mg/L. It also gave a neutralization IC50 [45] of 0.26 mg/L, a neutralization IC50 [46] of less than 0.001 mg/L and a neutralization IC50 [47] of 0.01 mg/L. The neutralization IC50 [48] was less than 0.001 mg/L, the neutralization IC50 [49] was 0.01 mg/L and the neutralization IC50 [50] was 0.002 mg/L. For the same substance, the neutralization IC50 [51] was 0.04 mg/L, the neutralization IC50 [52] was 0.04 mg/L and the neutralization IC50 [53] was 0.32 mg/L.
